Assays:
[1] = target: T1, SEMA, the ligand-binding domain of MET (Homo sapiens, UniProt P08581); test: ELISA; plates coated with 1 μg/mL MET or SEMA in PBS overnight at 4°C; blocked with PBS, 3% BSA, 20 mM EDTA, 0.05% Tween 20; mAbs from 64 μg/mL in 4-fold dilutions, 1 h room temperature; anti-IgG-HRP, OD650; conditions: both partners purified
T1 construct: source: Expi293F, transient transfection, purified from supernatant (Ni-NTA); not shown: His6, C-terminal, kept; Avi-Tag, C-terminal, kept

[2] = target: T2, extracellular portion of MET (EC-MET) (human, UniProt P08581); test: as above; conditions: both partners purified
T2 construct: MET, human, 908-amino acid extracellular portion; tags printed as HHHHHH and …; EC-MET was biotinylated with BirA for cell sorting only; also called recombinant ectodomain of MET; source: Expi293F, transient transfection, purified from supernatant (Ni-NTA); not shown: His6, C-terminal, kept; Avi-Tag, C-terminal, kept
T2 sequence (P08581 25-932): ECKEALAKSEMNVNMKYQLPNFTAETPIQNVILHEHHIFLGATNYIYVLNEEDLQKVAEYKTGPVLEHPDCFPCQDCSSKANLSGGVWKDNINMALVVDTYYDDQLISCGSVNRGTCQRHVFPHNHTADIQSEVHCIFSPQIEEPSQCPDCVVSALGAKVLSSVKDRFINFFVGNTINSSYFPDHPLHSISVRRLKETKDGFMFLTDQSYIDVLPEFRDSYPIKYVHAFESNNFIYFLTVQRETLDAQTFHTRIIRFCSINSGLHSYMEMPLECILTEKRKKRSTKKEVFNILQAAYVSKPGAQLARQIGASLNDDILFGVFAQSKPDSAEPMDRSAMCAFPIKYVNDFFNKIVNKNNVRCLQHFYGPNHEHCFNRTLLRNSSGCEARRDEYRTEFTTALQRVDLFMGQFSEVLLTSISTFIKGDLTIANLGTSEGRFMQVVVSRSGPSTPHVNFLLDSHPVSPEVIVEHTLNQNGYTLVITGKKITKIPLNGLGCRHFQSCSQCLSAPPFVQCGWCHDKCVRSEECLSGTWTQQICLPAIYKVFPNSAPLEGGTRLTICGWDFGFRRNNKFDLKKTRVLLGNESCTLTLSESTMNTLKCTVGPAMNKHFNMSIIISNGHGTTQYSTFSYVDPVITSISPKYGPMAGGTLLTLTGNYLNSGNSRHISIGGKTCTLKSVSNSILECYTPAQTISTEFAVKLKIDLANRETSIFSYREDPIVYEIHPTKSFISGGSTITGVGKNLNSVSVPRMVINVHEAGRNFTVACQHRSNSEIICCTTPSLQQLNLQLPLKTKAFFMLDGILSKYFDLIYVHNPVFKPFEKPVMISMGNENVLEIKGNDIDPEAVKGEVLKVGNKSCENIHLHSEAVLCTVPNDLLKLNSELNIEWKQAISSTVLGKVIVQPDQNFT

T1 sequence (P08581 27-515): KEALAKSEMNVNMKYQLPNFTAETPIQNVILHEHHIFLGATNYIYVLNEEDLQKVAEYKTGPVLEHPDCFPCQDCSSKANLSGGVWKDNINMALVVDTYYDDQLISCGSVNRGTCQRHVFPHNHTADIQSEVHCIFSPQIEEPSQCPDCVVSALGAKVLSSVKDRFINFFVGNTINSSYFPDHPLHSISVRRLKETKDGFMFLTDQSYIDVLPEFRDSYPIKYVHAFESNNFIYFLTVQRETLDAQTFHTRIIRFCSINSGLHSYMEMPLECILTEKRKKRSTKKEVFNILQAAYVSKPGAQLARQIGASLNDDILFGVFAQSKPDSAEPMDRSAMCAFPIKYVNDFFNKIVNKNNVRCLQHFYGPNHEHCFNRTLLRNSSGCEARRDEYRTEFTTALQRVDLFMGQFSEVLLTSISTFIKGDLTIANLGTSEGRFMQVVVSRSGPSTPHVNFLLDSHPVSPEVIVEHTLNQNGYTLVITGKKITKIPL

binding result [1]: binds | binding result [2]: binds
B1: mAb 69B253 (antibody, V domains shown)
VH: EVQLVESGGALVQPGGSLRLSCAASGFTFSSYGMGWVRQAPGKGLEWVSVIIGSGGSTSYVDSVRGRFTISRDNSRNMVYLQMSSLTVDDTAVYYCAKAACGVGFCYRSHWGQGTRVTVSS
VL: SLSVSPGETVTLSCRASQSVSSNLAWYQHKPGQAPRLLIHDASTRATGIPVRFSGSGSGTDFTLTISSLQSEDFAVYYCQHYYNWPYGFAQGTKLEIK
notes: heavy chain V(D)J region; light chain VJ region; light chain constant region of the Ig expression vector; Cloned from a MET-enriched B cell of a cancer patient; detected with anti-IgG secondary antibody; source: Expi293F, cotransfected heavy and light chain vectors, purified (protein A)

Reference: paper PMC12129041, “Unique characteristics of autoantibodies targeting MET in patients with breast and lung cancer” (JCI Insight, 2025)
